{
  "source": "patent US20240117326A1",
  "about": "(COMMONWEALTH SCIENTIFIC AND INDUSTRIAL RESEARCH ORGANISATION, published 2024)",
  "binders": {"B1": {"name": "MPP-processed MTP-FAγ51::NifU::TwinStrep fusion polypeptide encoded by SN166 (scar9::GG::NifU::TS) (other)", "chain": "not shown", "notes": "N-terminal analysis and the tryptic peptide ISTQVVR confirmed cleavage at the intended site; Purified from N. benthamiana leaves; also called scar9-NifU::TS; scar9-NifU-TwinStrep"}},
  "key": {"[1]": {"target": "T1, MPP-processed MTP-FAγ51::HA::AnfD fusion polypeptide (gene of SN161; in SL26, SL34, SL43, SL93) (Azotobacter vinelandii, UniProt P16266 1-518)", "T1 construct": "also called HA::AnfD processed; AnfD polypeptide", "assay": "co-purification on Strep-tactin column through TwinStrep::AnfK (SL34), aerobic; anti-HA Western blot"}, "[2]": {"target": "T2, MPP-processed MTP-FAγ51::NifS::HA fusion polypeptide encoded by SN31 (scar9::GG::NifS::HA) (Klebsiella oxytoca, UniProt P05344 1-397)", "T2 construct": "also called scar9-NifS::HA; processed NifS", "T2 sequence": "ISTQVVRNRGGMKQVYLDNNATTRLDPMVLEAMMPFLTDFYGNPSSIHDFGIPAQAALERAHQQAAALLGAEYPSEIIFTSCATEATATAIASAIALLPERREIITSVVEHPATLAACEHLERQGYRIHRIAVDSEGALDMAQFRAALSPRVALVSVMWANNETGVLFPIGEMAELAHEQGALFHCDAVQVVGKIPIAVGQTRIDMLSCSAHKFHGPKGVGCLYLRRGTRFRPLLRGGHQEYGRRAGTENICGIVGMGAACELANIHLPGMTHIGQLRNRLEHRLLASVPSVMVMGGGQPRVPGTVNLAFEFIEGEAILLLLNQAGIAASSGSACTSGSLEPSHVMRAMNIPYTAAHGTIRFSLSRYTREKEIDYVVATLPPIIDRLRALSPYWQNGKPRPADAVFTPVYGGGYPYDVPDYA", "assay": "co-purification on StreptactinXT column through NifU::TS from N. benthamiana leaf extract (SN31 + SN166), anaerobic, non-denaturing; anti-HA Western blot"}, "[3]": {"target": "B1", "assay": "co-purification on StreptactinXT column through NifU::TS from N. benthamiana leaf extract (SN31 + SN166), anaerobic, anti-HA Western blot of the eluate"}, "[4]": {"target": "T3, MPP-processed MTP-FAγ51::NifU::HA fusion polypeptide encoded by SN32 (scar9::GG::NifU::HA) (Klebsiella oxytoca, UniProt P05343 1-274)", "T3 construct": "also called scar9::NifU::HA; processed NifU", "T3 sequence": "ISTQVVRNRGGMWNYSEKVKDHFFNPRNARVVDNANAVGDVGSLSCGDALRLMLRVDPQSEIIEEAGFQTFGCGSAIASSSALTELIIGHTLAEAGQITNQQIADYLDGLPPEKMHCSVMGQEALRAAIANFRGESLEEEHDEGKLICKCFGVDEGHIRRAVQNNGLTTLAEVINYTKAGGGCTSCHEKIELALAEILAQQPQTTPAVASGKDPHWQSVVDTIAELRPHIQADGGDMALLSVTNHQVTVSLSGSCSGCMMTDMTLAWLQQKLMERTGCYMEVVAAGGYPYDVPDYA", "assay": "co-purification on StrepTactinXT column through NifS::TS from N. benthamiana leaf extract (SN231 + SN32); anti-HA Western blot"}, "[5]": {"target": "T4, MPP-processed MTP-FAγ51::AnfD::Twin Strep fusion polypeptide (gene of SN177, expressed from multi-gene vector … (Azotobacter vinelandii, UniProt P16266 1-518))", "T4 construct": "The eluted AnfD migrated at the size of the processed form; also called AnfD polypeptide (SL30)", "T4 sequence (P16266 other isoform, or with tags, fused parts or gaps)": "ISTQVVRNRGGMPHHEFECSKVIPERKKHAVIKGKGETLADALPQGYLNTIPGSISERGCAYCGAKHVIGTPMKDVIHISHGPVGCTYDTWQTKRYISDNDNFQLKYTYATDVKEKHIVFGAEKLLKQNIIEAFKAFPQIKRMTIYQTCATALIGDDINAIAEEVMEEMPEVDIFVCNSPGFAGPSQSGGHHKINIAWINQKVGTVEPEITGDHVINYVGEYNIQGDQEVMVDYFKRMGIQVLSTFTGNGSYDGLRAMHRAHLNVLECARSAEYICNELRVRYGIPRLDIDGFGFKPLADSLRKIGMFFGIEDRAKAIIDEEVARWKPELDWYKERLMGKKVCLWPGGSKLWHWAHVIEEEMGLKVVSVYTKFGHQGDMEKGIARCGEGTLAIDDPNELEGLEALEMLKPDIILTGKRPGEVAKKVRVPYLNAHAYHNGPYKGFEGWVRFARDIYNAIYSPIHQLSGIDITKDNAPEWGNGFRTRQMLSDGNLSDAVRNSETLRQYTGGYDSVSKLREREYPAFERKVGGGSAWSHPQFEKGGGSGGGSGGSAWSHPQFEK", "assay": "discussion of the AnfD::TwinStrep purification, aerobic"}},
  "data": [
    {"binder": "MPP-processed MTP-CoxIV::Twin Strep::AnfK fusion polypeptide (gene of SN195; in SL34, SL37, SL43) (enzyme, also called MTP-CoxIV::TwinStrep::AvAnfK) not shown", "values": [
      {"measurement": "binding result", "setting": "[1]", "result": "binds"}
    ]},
    {"binder": "B1", "values": [
      {"measurement": "binding result", "setting": "[2]", "result": "binds"}
    ]},
    {"binder": "unprocessed MTP-FAγ51::NifS::HA fusion polypeptide encoded by SN31 (enzyme, Full-length translation product, not cleaved by MPP; also called unprocessed form of the NifS fusion polypeptide) MMAMAVFRREGRRLLPSIAARPIAAIRSPLSSDQEEGLLGVRSISTQVVRNRGGMKQVYLDNNATTRLDPMVLEAMMPFLTDFYGNPSSIHDFGIPAQAALERAHQQAAALLGAEYPSEIIFTSCATEATATAIASAIALLPERREIITSVVEHPATLAACEHLERQGYRIHRIAVDSEGALDMAQFRAALSPRVALVSVMWANNETGVLFPIGEMAELAHEQGALFHCDAVQVVGKIPIAVGQTRIDMLSCSAHKFHGPKGVGCLYLRRGTRFRPLLRGGHQEYGRRAGTENICGIVGMGAACELANIHLPGMTHIGQLRNRLEHRLLASVPSVMVMGGGQPRVPGTVNLAFEFIEGEAILLLLNQAGIAASSGSACTSGSLEPSHVMRAMNIPYTAAHGTIRFSLSRYTREKEIDYVVATLPPIIDRLRALSPYWQNGKPRPADAVFTPVYGGGYPYDVPDYA", "values": [
      {"measurement": "binding result", "setting": "[3]", "result": "no binding"}
    ]},
    {"binder": "MPP-processed MTP-FAγ51::NifS::TwinStrep fusion polypeptide encoded by SN231 (scar9::NifS::TS) (enzyme, the text names scar9::NifS::TS in the eluate; also called MTP-FAγ51::NifS::TS) not shown", "values": [
      {"measurement": "binding result", "setting": "[4]", "result": "binds"}
    ]},
    {"binder": "MPP-processed MTP-FAγ51::HA::AnfK fusion polypeptide (gene of SN129; in SL26, SL30, SL93) (enzyme, also called HA::AnfK processed) ISTQVVRNRGGYPYDVPDYAGGMTCEVKEKGRVGTINPIFTCQPAGAQFVSIGIKDCIGIVHGGQGCVMFVRLIFSQHYKESFELASSSLHEDGAVFGACGRVEEAVDVLLSRYPDVKVVPIITTCSTEIIGDDVDGVIKKLNEGLLKEKFPDREVHLIAMHTPSFVGSMISGYDVAVRDVVRHFAKREAPNDKINLLTGWVNPGDVKELKHLLGEMDIEANVLFEIESFDSPILPDGSAVSHGNTTIEDLIDTGNARATFALNRYEGTKAAEYLQKKFEIPAIIGPTPIGIRNTDIFLQNLKKATGKPIPQSLAHERGVAIDALADLTHMFLAEKRVAIYGAPDLVIGLAEFCLDLEMKPVLLLLGDDNSKYVDDPRIKALQENVDYGMEIVTNADFWELENRIKNEGLELDLILGHSKGRFISIDYNIPMLRVGFPTYDRAGLFRYPTVGYGGAIWLAEQMANTLFADMEHKKNKEWVLNVW", "values": [
      {"measurement": "binding result", "setting": "[5]", "result": "binds"}
    ]}
  ]
}
